The numbers were not newly measured in paper PMC5257249, which cites them from elsewhere.

Where two headings read alike, the source gives them in different places.

Data set [1] addresses MMOH (Methylococcus capsulatus) (UniProt P22869). Put plainly: fluorescence anisotropy. (In fluorescence polarisation assays a small probe gives low polarisation when free and higher when bound to something large.)
Data set [2] has the same target. Put plainly: fluorescence anisotropy. The source holds these as a separate data set.

UniProt P22869, sequence (P22869 whole entry, chain 1 of 3): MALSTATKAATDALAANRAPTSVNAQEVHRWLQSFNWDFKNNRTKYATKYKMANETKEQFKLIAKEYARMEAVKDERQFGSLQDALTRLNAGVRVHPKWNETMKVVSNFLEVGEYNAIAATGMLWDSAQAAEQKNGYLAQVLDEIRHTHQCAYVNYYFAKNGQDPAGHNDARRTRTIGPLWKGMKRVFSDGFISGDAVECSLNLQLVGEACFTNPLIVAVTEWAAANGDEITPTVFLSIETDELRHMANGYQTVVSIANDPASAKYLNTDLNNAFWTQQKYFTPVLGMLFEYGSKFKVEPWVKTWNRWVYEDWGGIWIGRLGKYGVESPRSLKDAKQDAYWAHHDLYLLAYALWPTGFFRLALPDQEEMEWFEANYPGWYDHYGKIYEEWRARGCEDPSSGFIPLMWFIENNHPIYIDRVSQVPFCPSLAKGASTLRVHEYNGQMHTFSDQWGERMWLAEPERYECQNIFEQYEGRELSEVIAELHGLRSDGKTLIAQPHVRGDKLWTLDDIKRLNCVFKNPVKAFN
UniProt P22869, sequence (P18798 2-389, chain 2 of 3, further chain): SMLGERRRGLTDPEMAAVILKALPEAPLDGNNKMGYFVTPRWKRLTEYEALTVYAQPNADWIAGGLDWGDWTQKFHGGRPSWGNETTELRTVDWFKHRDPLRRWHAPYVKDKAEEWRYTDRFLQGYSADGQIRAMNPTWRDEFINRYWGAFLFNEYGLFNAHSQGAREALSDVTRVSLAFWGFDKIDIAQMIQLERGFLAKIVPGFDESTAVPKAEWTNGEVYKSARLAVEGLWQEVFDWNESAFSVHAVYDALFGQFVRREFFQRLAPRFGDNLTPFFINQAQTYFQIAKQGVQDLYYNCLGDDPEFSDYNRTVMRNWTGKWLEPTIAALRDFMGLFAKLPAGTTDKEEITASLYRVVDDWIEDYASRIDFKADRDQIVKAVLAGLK
UniProt P22869, sequence (P11987 2-170, chain 3 of 3, further chain): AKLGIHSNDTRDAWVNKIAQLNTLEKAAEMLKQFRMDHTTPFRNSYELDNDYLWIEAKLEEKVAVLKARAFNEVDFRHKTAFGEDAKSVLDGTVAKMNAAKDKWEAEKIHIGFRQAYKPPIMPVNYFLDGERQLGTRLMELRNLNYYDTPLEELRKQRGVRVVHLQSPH

As a reminder, the Kd is the concentration at which binding is half-saturated. Take MMOB (from UniProt P18797): the values for the dissociation constant (Kd) in data set [1] and in data set [2] were 550 nM and 170 nM, respectively.
